Reference: US12264201B2, “Bispecific antibody targeting IL-1R1 and NLPR3” (University of Ulster, priority 2018, dated 2025)

Columns and labels:
THP1 cells = assay: IL-1β release from LPS/ATP-stimulated differentiated THP1 cells (ELISA); assay type: cell-based; conditions: PMA-differentiated THP1; LPS 1 μg/ml 3 h, Ab 30 min (0.0025-2.5 ng/ml or 1 nM), ATP 5 mM 1 h; supernatant ELISA; FIG. 33
Procedure: THP1 cells, for FIGS. 33a and b, were cultured in 96-well plates at 100,000 cells/200 μl complete media. PMA (100 μg/ml for 72 hours) was used to differentiate THP-1 cells into macrophages. Following 24 hours of rest, differentiated THP1 cells were stimulated with LPS (1 μg/ml) for 3 hours, treated with MCC950 (1 μM) or the IL-1R1/NLRP3 Ab in a dose dependent fashion from 0.0025 ng/ml to 2.5 ng/ml for FIG. 33a or with IL-1R1/NLRP3 Ab (1 nM) for FIG. 33b or with IgG control antibody for 30 minutes, followed by ATP (5 mM) for 1 hour. IL-1β release was measured in the supernatant by ELISA.

apoE−/− mice [1] = assay: In vivo LPS challenge, serum IL-1β and TNF-α by ELISA; conditions: LPS 50 μg/kg i.v., FIG. 37
Procedure: Female apoE−/− mice were fed a Western-type diet containing 0.25% cholesterol and 15% cacao butter (SDS, Sussex, UK) starting 1 week prior to treatment and throughout the experiment. Diet and water were provided ad libitum. After 1 week of diet feeding, mice were injected intraperitoneally with PBS or InflaMab (100 μg or 200 μg) administrated on day 10 and day 14. After 2 weeks of diet and a 1-week treatment mice were challenged intravenously with LPS (50 μg/kg, Salmonella minnesota R595, List Biological Laboratories Inc.) and blood was collected after 0.5, 1, 2 and 4 hours. After 4 hours mice were sacrificed and serum levels of IL-1β and TNF-α were measured by ELISA.
IL-1beta, but not TNFalpha, is inhibited in vivo via LPS challenge—see FIG. 37. Female apoE−/− mice, after 1 week on WTD, were injected intraperitoneally with PBS or InflaMab (100 μg or 200 μg) administrated on day 10 and day 14. After 2 weeks of diet and a 1-week treatment mice were challenged intravenously with LPS (50 μg/kg) and (a) IL-1β and (b) TNF-α were measured by ELISA.

apoE−/− mice [2] = assay: Atherosclerosis: collar-induced carotid artery plaque formation, morphometry; assay type: in vivo
Description: Female apoE−/− mice were fed a Western-type diet, containing 0.25% cholesterol and 15% cacao butter (SDS, Sussex, UK) starting two weeks prior to surgery and throughout the experiment. After 2 weeks of diet feeding, carotid artery plaque formation was induced by perivascular collar placement in these mice as described previously (von der Thusen et al, Circulation. 2001; 103(8):1164-1170). […] Through the experiment, mice were weighed weekly and blood samples were obtained via the tail vein. Total cholesterol levels were determined in the serum using enzymatic colorimetric procedures (Roche/Hitachi, Mannheim, Germany). Precipath (Roche/Hitachi) was used as an internal standard. Fasting glucose levels were determined in mice at 2 weeks after starting the treatment with InflaMab and were measured with an Accu-Check glucometer (Roche Diagnostics, Almere, The Netherlands). For lipid profiling, serum samples pooled from 3 mice were used (n=3 samples per group) which were diluted 6 times, and fractionation of plasma lipoproteins was performed using an AKTA-FPLC. In each fraction, the total cholesterol levels were determined by incubation with cholesterol CHOD-PAP Reagent (Roche, Woerden, The Netherlands). Absorbance was measured at 492 nm.
After 4 weeks of treatment, the mice were anesthetized and in situ perfused, after which the carotid arteries were collected, frozen in OCT compound (TissueTek; Sakura Finetek, The Netherlands) and stored at −80° C. Transverse 10 μm cryosections were prepared on a Leica CM 3050S Cryostat (Leica Instruments) in a proximal direction for (immuno)histochemical analysis.
Cryosections were routinely stained with hematoxylin (Sigma-Aldrich, Zwijndrecht, The Netherlands) and eosin (Merck Diagnostica, Darmstadt, Germany). Morphometric analysis (Leica Qwin image analysis software) was performed on hematoxylin-eosin stained sections of the carotid arteries. For each carotid, lesion size was quantified every 100 μm, from the first appearance of the lesion proximal to the collar up to complete disappearance of the lesion from the artery. The number of sections analyzed ranged from 5 to 15 sections per mouse, from which average plaque size and plaque volume were calculated. The section with the largest plaque size was annotated as the plaque with maximum stenosis. For the quantification of lesion content in the carotid artery, four consecutive cross-sections containing the largest lesions were used. To determine lipid content, sections were stained with Oil-Red-O (Sigma-Aldrich). Macrophage content of the lesions was assessed using a rat monoclonal MOMA-2 antibody (Serotec, Kidlington, Oxford, UK). Collagen was visualized using a Sirius Red staining (Sigma-Aldrich). Mast cells and neutrophils were visualized by staining of cryosections with naphthol AS-D chloroacetate esterase (Sigma-Aldrich). The number of mast cells and neutrophils was assessed manually in two consecutive cross-sections containing the largest lesions. MOMA-2 and collagen positive areas were quantified by Leica Qwin image analysis software using a Leica DM-RE microscope (Leica Microsystems Inc., Wetzlar, Germany). All morphometric analyses were performed by a blinded operator (T.v.d.H.).
Atherosclerosis study: InflaMab reduces plaque size in an in vivo apoe−/− model of atherosclerosis—see FIG. 38. After 2 weeks of western type diet feeding in female apoE−/− mice, carotid artery plaque formation was induced by perivascular collar placement. […] Carotid arteries then collected for cyrosections. For each carotid, lesion size was quantitated every 80 μm, from the first appearance of the lesion proximal to the collar up to complete disappearance of the lesion from the artery.

B1: InflaMab: 210 kDa bispecific mouse antibody to IL-1R1 and NLRP3; light chain SEQ ID NO: 57, heavy chain with scFv SEQ ID NO: 59 (protein)
light: MVSSAQFLGLLLLCFQGTRCDIVMTQSPATLSVTPGDRVSLSCRASQSISDYLSWYQQRSHESPRLIIKYASQSISGIPSRFSGSGSGSDFTLSINSVEPEDVGVYYCQHGHSFPLTFGSGTKLELKRADAAPTVSIFPPSSEQLTSGGASVVCFLNNFYPKDINVKWKIDGSERQNGVLNSWTDQDSKDSTYSMSSTLTLTKDEYERHNSYTCEATHKTSTSPIVKSFNRNEC
heavy: MGWTLVFLFLLSVTAGVHSQIQLVQSGPELRKPGETVRISCKASGYPFTTAGLQWVQKMSGKGLKWIGWMNTQSEVPKYAEEFKGRIAFSLETAASTAYLQINNLKTEDTATYFCAKSVYFNWRYFDVWGAGTTVTVSSAKTTAPSVYPLAPVCGDTTGSSVTLGCLVKGYFPEPVTLTWNSGSLSSGVHTFPAVLQSDLYTLSSSVTVTSSTWPSQSITCNVAHPASSTKVDKKIEPRGPTIKPCPPCKCPAPNLLGGPSVFIFPPKIKDVLMISLSPIVTCVVVDVSEDDPDVQISWFVNNVEVHTAQTQTHREDYNSTLRVVSALPIQHQDWMSGKEFKCKVNNKDLPAPIERTISKPKGSVRAPQVYVLPPPEEEMTKKQVTLTCMVTDFMPEDIYVEWTNNGKTELNYKNTEPVLDSDGSYFMYSKLRVEKKNWVERNSYSCSVVHEGLHNHHTTKSFSRTPGKGSAGGSGGDSEVQLVESGGGLVKPGGSLKLSCAASGFTFSDYYMYWVRQTPEKRLEWVATISDGGTYTYYPDSVKGRFTISRDNAKNNLYLQMNSLKSEDTAMYYCARGWVSTMVKLLSSFPYWGQGTLVTVSAGGGGSGGGGSGGGGSQAVVTQESALTTSPGETVTLTCRSSTGAVTTSNYANWVQEKPDHLFTGLIGGTNNRAPGVPARFSGSLIGDKAALTITGAQTEDEAIYFCALWYSNYWVFGGGTKLTVLGQPK
For B1, the IL-1β release (THP1 cells) was “prevents”, the “IL-1beta secretion in vivo” value (apoE−/− mice [1]; female apoE−/− mice on Western-type diet, 100 μg or 200 μg i.p. day 10 and 14) was “specifically inhibit” and the “secretion of TNFalpha in vivo” value (apoE−/− mice [1]; female apoE−/− mice, 100 μg or 200 μg i.p., specificity) was “no effect”. For the same molecule, the “reduction in lesion size” value (apoE−/− mice [2]; FIG. 38, significant, versus control) was −35%, the Mouse weight (apoE−/− mice [2]; InflaMab versus control groups) was “no difference” and the “general white blood cell levels (hematology analysis)” value (apoE−/− mice [2]; InflaMab versus control groups) was “no difference”. For the same molecule, the “% reduction of plaque size at site of maximal stenosis” value (apoE−/− mice [2]; InflammAb average versus Control IgG average) was 30.6164%, the “Average plaque size, group Average” value (apoE−/− mice [2]; group average, 10 mice listed) was 36604 μm^2 and the “Lumen size at site of maximal stenosis, Average” value (apoE−/− mice [2]; group average, 10 mice listed) was 11415 μm^2. The “Media (size) at site of maximal stenosis, Average” value (apoE−/− mice [2]; group average, 10 mice listed) was 40997 μm^2, the “Plaque size at site of maximal stenosis, Average” value (apoE−/− mice [2]; group average, 10 mice listed) was 58881 μm^2 and the “total vessel area at site of maximal stenosis, Average” value (apoE−/− mice [2]; group average, 10 mice listed) was 111293 μm^2. The “Lumen size (area of the artery still open for blood flow) compared to Control IgG” value (apoE−/− mice [2]; in words) was “almost significantly larger”, the “Total vessel area (plaque+media+lumen) compared to Control IgG” value (apoE−/− mice [2]; in words) was “not different” and the “media size (size of the medial smooth muscle layer) compared to Control IgG” value (apoE−/− mice [2]; in words, Tables 5 and 6) was “no effect”. The “lesion size, FIG. 38a” value (apoE−/− mice [2]; versus control, in words) was “trend towards a reduction”.
